Paper PMC5117808 (Nature chemical biology, 2016)
No end group written: not given here.

T1: MdnC (Microcystis aeruginosa MRC, UniProt B2G3D0)
T1 sequence (B2G3D0 1-324): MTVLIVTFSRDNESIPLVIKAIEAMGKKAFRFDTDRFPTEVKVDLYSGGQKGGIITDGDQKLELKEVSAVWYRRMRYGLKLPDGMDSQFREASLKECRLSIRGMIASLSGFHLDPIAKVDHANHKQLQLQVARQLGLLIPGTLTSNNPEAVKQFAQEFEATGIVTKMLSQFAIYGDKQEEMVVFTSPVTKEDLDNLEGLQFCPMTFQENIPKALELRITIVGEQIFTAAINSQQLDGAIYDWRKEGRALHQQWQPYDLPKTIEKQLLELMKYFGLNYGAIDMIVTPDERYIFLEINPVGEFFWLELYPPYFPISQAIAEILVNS

T2: MdnB (Microcystis aeruginosa MRC, UniProt B2G3C9)
T2 sequence (B2G3C9 1-326): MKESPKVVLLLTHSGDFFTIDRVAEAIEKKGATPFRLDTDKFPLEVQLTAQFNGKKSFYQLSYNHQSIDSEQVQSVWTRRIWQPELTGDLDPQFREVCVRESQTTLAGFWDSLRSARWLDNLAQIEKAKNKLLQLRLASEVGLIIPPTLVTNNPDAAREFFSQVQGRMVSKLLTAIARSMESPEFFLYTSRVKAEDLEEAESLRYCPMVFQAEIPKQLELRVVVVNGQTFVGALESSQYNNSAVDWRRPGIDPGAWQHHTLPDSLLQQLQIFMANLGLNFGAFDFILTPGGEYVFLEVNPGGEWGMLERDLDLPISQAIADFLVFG

B1: MdnB (ATP-grasp macrocyclase, microviridin J pathway, Microcystis aeruginosa MRC) (enzyme)
chain: T2 sequence (B2G3C9 1-326)

How the values were obtained:
[1] = biological target: MdnC (ATP-grasp macrocyclase, microviridin J pathway, Microcystis aeruginosa MRC) (Microcystis aeruginosa MRC); test: ITC
MdnC = biological target: T1, MdnC; format: binding; conditions: ITC
MdnB = biological target: T2, MdnB; test: ITC binding of MdnA peptides to MdnB
[2] = biological target: MdnC (ATP-grasp macrocyclase, microviridin J pathway, Microcystis aeruginosa MRC) (Microcystis aeruginosa MRC); test: SEC + native gel or EMSA
[3] = biological target: MdnC (Microcystis aeruginosa MRC); test: crystal structure
[4] = biological target: MdnC (Microcystis aeruginosa MRC); test: SEC
Daphnia = conditions: through inhibition of serine-type proteases; cited from earlier work
[5] = biological target: B1; test: ITC
SEC + native gel or EMSA = biological target: the molecule itself; test: SEC + native gel or EMSA

## Full-length MdnA (residues 1-49), microviridin J precursor peptide (from UniProt B2G3C8 1-49)
[1]
  Kd: 112 nM

## Nc1ncnc2c1ncn2[C@@H]1O[C@H](COP(=O)(O)OP(=O)(O)OP(=O)(O)O)[C@@H](O)[C@H]1O [ATP]
MdnC
  Binding to MdnC, in words: neither MdnC nor MdnB show an observable heat change
MdnB
  Binding to MdnB, in words: neither MdnC nor MdnB show an observable heat change

## MdnC (ATP-grasp macrocyclase, microviridin J pathway, Microcystis aeruginosa MRC) (enzyme)
[2]
  stoichiometry N: 2

## MdnC (enzyme)
[3]
  stoichiometry N: 2
[4]
  stoichiometry N: 2

## microviridin J
Daphnia
  Effect on Daphnia: lethal molting disruption

## MAYPNDQQGKALPFFARFLSVSKEESSIKSPSPDH (not fully specified)
[1]
  Kd: 146 nM

## MAYPNDQQGKALPFFARFLSVSKEESSIKSPSPDH
[5]
  Kd: 2800 ± 800 nM

## B1
SEC + native gel or EMSA
  stoichiometry N: 2

## GKALPFFARFLSVS (not fully specified) [MdnA[9-22], minimal peptide containing the conserved region of the leader peptide]
[1]
  Kd: 308 nM

## MAYPNDQQGKALPFFARFLSVSKEESSIKSPSPDHEISTRKYPSDWEEW [Full-length MdnA (residues 1-49), microviridin J precursor peptide]
[5]
  Kd: 4800 ± 1000 nM

## MAYPNDQQGKALPFFARFLSVSKEESSIKSPSPDHEISTRKYPSDWEEW (two macrolactone rings, Thr39/Asp45 and Ser43/Glu47 (installed by MdnC)) [MdnAΔ2, dicyclic intermediate of MdnA]
[5]
  Kd: 6400 ± 2000 nM
